According to IntAct's records for PubMed 16369487:

B1: SPRY domain-containing SOCS box protein 2 (Mus musculus), O88838 (parent)
chain: MGQTALARGSSSTPTSQALYSDFSPPEGLEELLSAPPPDLVAQRHHGWNPKDCSENIDVKEGGLCFERRPVAQSTDGVRGKRGYSRGLHAWEISWPLEQRGTHAVVGVATALAPLQADHYAALLGSNSESWGWDIGRGKLYHQSKGLEAPQYPAGPQGEQLVVPERLLVVLDMEEGTLGYSIGGTYLGPAFRGLKGRTLYPSVSAVWGQCQVRIRYMGERRVEEPQSLLHLSRLCVRHALGDTRLGQISTLPLPPAMKRYLLYK
partner: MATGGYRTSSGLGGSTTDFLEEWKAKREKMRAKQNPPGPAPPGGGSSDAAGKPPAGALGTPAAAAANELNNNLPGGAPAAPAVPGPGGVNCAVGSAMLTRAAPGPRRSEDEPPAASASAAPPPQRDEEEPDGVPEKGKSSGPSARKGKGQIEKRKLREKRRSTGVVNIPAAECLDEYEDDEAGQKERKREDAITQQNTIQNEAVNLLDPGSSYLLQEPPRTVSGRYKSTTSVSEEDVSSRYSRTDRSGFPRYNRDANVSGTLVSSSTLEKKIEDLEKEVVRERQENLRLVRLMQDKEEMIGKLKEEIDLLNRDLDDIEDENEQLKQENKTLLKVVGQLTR

Variants of: B1
Conditions: with pawr_human PAWR

| effect of a mutation on the interaction | Variant |
| --- | --- |
| disrupting interaction strength | G188A;P189A |
| disrupting interaction strength | Q151A;Y152A |
| disrupting interaction | V206A |

More lines, now with the values behind:

| Variant | effect of a mutation on the interaction |
| --- | --- |
| L123A;L124A;G125A | disrupting interaction strength |
| Y120A | disrupting interaction |
| Y141A;H142A;Q143A | disrupting interaction strength |
